Key:
[1] = biological target: T1, PD-1 (soluble, biotinylated, on sensors or coated on plates) (human, UniProt Q15116 25-167, biotinylated (avi tag, Avidity's biotinylation kit) in the Octet assays); assay: ELISA; constant antigen coating
[2] = biological target: T1, PD-1 (soluble, biotinylated, on sensors …); assay: ELISA; variable antigen coating

T1 sequence (Q15116 25-167): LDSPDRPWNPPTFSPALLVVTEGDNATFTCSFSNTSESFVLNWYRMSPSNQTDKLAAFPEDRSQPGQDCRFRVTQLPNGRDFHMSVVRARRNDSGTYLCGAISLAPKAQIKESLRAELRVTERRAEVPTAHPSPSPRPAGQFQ

- EC50 [1]: 0.0407 µg/mL
- EC50 [2]: 0.514 µg/mL
B1: P4-B3 IgG1 wild type monomer (antibody, V domains shown)
VH: QVQLVQSGGGLVQPGRSLRLSCAASGFTFDDYAMHWVRQAPGKGLEWVSGISWNSGSIGYADSVKGRFTVSRDNAKNSLYLQMNSLRAEDTAVYYCASDYGDKYYYYGMDVWGKGTTVTVSS
VL: QPGLTQPPSASGTPGQRVTISCSGSSSNIGSNTVNWYQQFPGKAPKLLIFNDNQRPSGVPDRFSASKSGTSASLAISGLQSEDEADYYCAAWDGGLNGRGVFGGGTKLTVLG

From patent US20220249640A1 (published 2022)
